Substitutions are numbered along the chain they refer to.
T1: mouse FcγRII extracellular domain, C-terminally His-tagged (mouse, UniProt P08101 30-210)
T1 construct: the whole entry is named; also called mFcγRII; mFcgRII
T1 sequence: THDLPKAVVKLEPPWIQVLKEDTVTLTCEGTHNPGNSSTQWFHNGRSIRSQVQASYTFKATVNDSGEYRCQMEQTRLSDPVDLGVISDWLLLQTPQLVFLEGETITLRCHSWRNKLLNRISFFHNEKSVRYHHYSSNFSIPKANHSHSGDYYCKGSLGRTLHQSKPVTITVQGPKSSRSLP

T2: mouse FcγRIII extracellular domain, C-terminally His-tagged (mouse, UniProt P08508 31-215)
T2 construct: the whole entry is named; also called mFcγRIII; mFcgRIII
T2 chain: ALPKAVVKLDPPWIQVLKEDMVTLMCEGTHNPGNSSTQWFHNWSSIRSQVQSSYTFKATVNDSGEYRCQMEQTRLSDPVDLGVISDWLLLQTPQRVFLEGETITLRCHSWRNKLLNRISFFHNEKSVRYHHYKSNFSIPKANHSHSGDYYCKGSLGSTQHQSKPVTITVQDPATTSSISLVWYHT

T3: mouse FcγRIII (mouse, UniProt P08508 31-215)
T3 construct: also called mFcγRIII; mFcgRIII
T3 chain: T2 chain

T4: mouse FcγRII (mouse, UniProt P08101 30-210)
T4 construct: also called mFcγRII; mFcgRII
T4 sequence: T1 sequence

B1: H237-MB496/MRAL-k0 (antibody, mouse IgG1, kappa)
heavy: QVQLQESGPGLVKPSETLSLTCAVSGHSISHDHAWSWVRQPPGEGLEWIGFISYSGITNYNPSLQGRVTISRDNSKNTLYLQMNSLRAEDTAVYYCARSLARTTAMDYWGEGTLVTVSSAKTTPPSVYPLAPGSAAQTNSMVTLGCLVKGYFPEPVTVTWNSGSLSSGVHTFPAVLQSDLYTLSSSVTVPSSTWPSETVTCNVAHPASSTKVDKKIVPRDCGCKPCICEPNEVEDVFIFPPKPKDVLTITLTPKVTCVVVDISKDDPEVQFSWFVDDVEVHTAQTQPREEQFNMTFRSVSELPIMHQDWLNGKEFKCRVNSAAFPAPIERTISKTKGRPKAPQVYTIPPPKEQMAKDKVSLTCMITDFFPEDITVEWQWNGQPAENYKNTQPIMDTDGSYFVYSKLNVQKSNWEAGNTFTCSVLHEGLHNHHTEKSLSHSPGK
light: not shown
notes: copies: 2 + 2
B2: H237-MB497/MRAL-k0 (antibody, mouse IgG1, kappa)
heavy: B1 heavy with M294S, N320D
light: not shown
notes: copies: 2 + 2
B3: H237-MB492/MRAL-k0 (antibody, mouse IgG1, kappa)
heavy: B1 heavy with M294S, N320D, R330K
light: not shown
notes: copies: 2 + 2
B4: H237-MB493/MRAL-k0 (antibody, mouse IgG1, kappa)
heavy: B1 heavy with M294L, N320D, R330K
light: not shown
notes: copies: 2 + 2
B5: H237-MB477/MRAL-k0 (antibody, mouse IgG1, kappa)
heavy: B1 heavy with S263A, M294S, R330K
light: not shown
notes: copies: 2 + 2
B6: H237-MB491/MRAL-k0 (antibody, mouse IgG1, kappa)
heavy: B1 heavy with R330K
light: not shown
notes: copies: 2 + 2
B7: H237-MB498/MRAL-k0 (antibody, mouse IgG1, kappa)
heavy: B1 heavy with M294L, N320D
light: not shown
notes: copies: 2 + 2
B8: H237-MB494/MRAL-k0 (antibody, mouse IgG1, kappa)
heavy: B1 heavy with M294L
light: not shown
notes: copies: 2 + 2
B9: H237-MB478/MRAL-k0 (antibody, mouse IgG1, kappa)
heavy: B1 heavy with Q291L, M294S, R330K
light: not shown
notes: copies: 2 + 2
B10: H237-MB499/MRAL-k0 (antibody, mouse IgG1, kappa)
heavy: B1 heavy with N320D
light: not shown
notes: copies: 2 + 2
B11: H237-MB479/MRAL-k0 (antibody, mouse IgG1, kappa)
heavy: B1 heavy with M294S, A322D, R330K
light: not shown
notes: copies: 2 + 2
B12: H237-MB480/MRAL-k0 (antibody, mouse IgG1, kappa)
heavy: B1 heavy with M294S
light: not shown
notes: copies: 2 + 2
B13: H237-MB495/MRAL-k0 (antibody, mouse IgG1, kappa)
heavy: B1 heavy with N320D, R330K
light: not shown
notes: copies: 2 + 2
B14: H237-MB490/MRAL-k0 (antibody, mouse IgG1, kappa)
heavy: B1 heavy with M294L, R330K
light: not shown
notes: copies: 2 + 2
B15: H237-MB290/MRAL-k0 (antibody, mouse IgG1, kappa)
heavy: B1 heavy with E229T, P230A, N231P, E234S, M294S, R330K
light: not shown
notes: copies: 2 + 2
B16: H237-MB302/MRAL-k0 (antibody, mouse IgG1, kappa)
heavy: B1 heavy with P230V, N231P, M294S, R330K
light: not shown
notes: copies: 2 + 2
B17: MB289 (antibody, mouse IgG1, kappa)
heavy: B1 heavy with P230V, N231P, E234S, M294S, R330K
light: not shown
notes: copies: 2 + 2
B18: MB291 (antibody, mouse IgG1, kappa)
heavy: B1 heavy with E229T, P230D, N231P, E234S, M294S, R330K
light: not shown
notes: copies: 2 + 2
B19: MB292 (antibody, mouse IgG1, kappa)
heavy: B1 heavy with E229T, P230V, N231E, E234S, M294S, R330K
light: not shown
notes: copies: 2 + 2
B20: H237-MB305/MRAL-k0 (antibody, mouse IgG1, kappa)
heavy: B1 heavy with E229T, P230A, N231E, E234S, M294S, R330K
light: not shown
notes: copies: 2 + 2
B21: MB293 (antibody, mouse IgG1, kappa)
heavy: B1 heavy with E229T, P230V, N231P, M294S, R330K
light: not shown
notes: copies: 2 + 2
B22: H237-MB337/MRAL-k0 (antibody, mouse IgG1, kappa)
heavy: B1 heavy with P230A, N231P, M294S, R330K
light: not shown
notes: copies: 2 + 2

target: T1, mouse FcγRII extracellular domain, …; experiment: SPR Biacore T200, KD ratio
Source text: (§1) The antibody H chain variable region used was the variable region H237 (SEQ ID NO: 1) of the H chain VH3-IgG1 of the anti-IL-6 receptor antibody Fv4-IgG1 described in WO2009/125825. The antibody L chain commonly used was the L chain MRAL-k0 (SEQ ID NO: 2) of the anti-IL-6 receptor antibody tocilizumab. […] The resulting variant groups were designated as MB397 variants and MB390 variants, respectively. These variants were expressed and purified by the method of Reference Example 1 and evaluated for their binding to mFcγRII and mFcγRIII by the method of Reference Example 2 using Biacore T200.
(§2) Each altered antibody was analyzed for its interaction with each Fcγ receptor prepared above using Biacore T100 (GE Healthcare Japan Corp.), Biacore T200 (GE Healthcare Japan Corp.), Biacore A100, or Biacore 4000. The running buffer used was HBS-EP+ (GE Healthcare Japan Corp.). The assay temperature was set to 25° C. The sensor chips used were chips prepared by immobilizing Protein L (ACTIGEN or BioVision) onto Series S Sensor Chip CM5 (GE Healthcare Japan Corp.) or Series S Sensor Chip CM4 (GE Healthcare Japan Corp.) by the amine coupling method.
(§3) In order to calculate the KD value of each altered antibody for FcγR, kinetic analysis was conducted according to the following method: first, the antibody of interest was captured onto any of these chips and allowed to interact with mFcγR diluted with a running buffer. For the obtained sensorgram, the assay results were globally fit into the 1:1 Langmuir binding model using Biacore Evaluation Software to calculate an association rate constant ka (L/mol/s) and a dissociation rate constant kd (1/s). From these values, the dissociation constant KD (mol/L) was calculated.

Row | relative mFcγRII-binding activity (MB390 = 1) | relative mFcγRII-binding activity (mIgG1 = 1) | Binder
1 | 1.7 fold | 884 fold | B1
2 | 1.48 fold | 773 fold | B2
3 | 1.19 fold | 622 fold | B3
4 | 2.73 fold | 1420 fold | B4
5 | 0.38 fold | 196 fold | B5
6 | 0.92 fold | 478 fold | B6
7 | 6.4 fold | 3340 fold | B7
8 | 4.05 fold | 2110 fold | B8
9 | 0.49 fold | 254 fold | B9
10 | 1.9 fold | 992 fold | B10
11 | 1.41 fold | 734 fold | B11
12 | 0.98 fold | 511 fold | B12
13 | 1.2 fold | 623 fold | B13
14 | 2.16 fold | 1130 fold | B14

Target: T2, mouse FcγRIII extracellular domain, …
Experiment: SPR Biacore T200, KD ratio
Source text: as §1, §2, §3

Row | relative mFcγRIII-binding activity (MB390 = 1) | relative mFcγRIII-binding activity (mIgG1 = 1) | Binder
15 | 1.71 fold | 20.3 fold | B1
16 | 1.32 fold | 15.7 fold | B2
17 | 0.92 fold | 10.9 fold | B3
18 | 3.77 fold | 44.9 fold | B4
19 | 0.25 fold | 3 fold | B5
20 | 1.05 fold | 12.4 fold | B6
21 | 7.15 fold | 85.1 fold | B7
22 | 4.99 fold | 59.4 fold | B8
23 | 0.39 fold | 4.7 fold | B9
24 | 2.03 fold | 24.2 fold | B10
25 | 1.16 fold | 13.8 fold | B11
26 | 0.85 fold | 10.2 fold | B12
27 | 1.45 fold | 17.2 fold | B13
28 | 2.9 fold | 34.6 fold | B14

Target: T3, mouse FcγRIII
Experiment: SPR Biacore T200, KD ratio
Source text: as §1, with “group was” for “groups were”, “MB110 variants.” for “MB397 variants and MB390 variants, respectively.”
as §2, §3

Row | Relative mFcγRIII-binding activity (MB110 = 1) | relative mFcγRIII-binding activity (mIgG1 = 1) | Binder
29 | 1.37 fold | 5.5 fold | B15
30 | 1.11 fold | 4.5 fold | B16
31 | 1.23 fold | 4.9 fold | B17
32 | 1.66 fold | 6.7 fold | B18
33 | 1.02 fold | 4.1 fold | B19
34 | 0.94 fold | 3.8 fold | B20
35 | 1.01 fold | 4.1 fold | B21
36 | 1.15 fold | 4.6 fold | B22

target: T4, mouse FcγRII; experiment: SPR Biacore T200, KD ratio
Source text: as §1, with “group was” for “groups were”, “MB110 variants.” for “MB397 variants and MB390 variants, respectively.”
as §2, §3

Row | Relative mFcγRII-binding activity (MB110 = 1) | relative mFcγRII-binding activity (mIgG1 = 1) | Binder
37 | 2.16 fold | 26.5 fold | B15
38 | 4.37 fold | 53.7 fold | B16
39 | 3.57 fold | 43.8 fold | B17
40 | 3.47 fold | 42.6 fold | B18
41 | 2.82 fold | 34.6 fold | B19
42 | 2.12 fold | 26 fold | B20
43 | 3.25 fold | 39.9 fold | B21
44 | 5.98 fold | 73.4 fold | B22

Source: patent US20150203577A1 (Chugai, published 2015)
